We go through two molecules from patent US20140087995A1 (published 2014).

Experiment [1] concerns the target T1, human calcitonin receptor (human, UniProt P30988 25-474).
T1 sequence (looked up): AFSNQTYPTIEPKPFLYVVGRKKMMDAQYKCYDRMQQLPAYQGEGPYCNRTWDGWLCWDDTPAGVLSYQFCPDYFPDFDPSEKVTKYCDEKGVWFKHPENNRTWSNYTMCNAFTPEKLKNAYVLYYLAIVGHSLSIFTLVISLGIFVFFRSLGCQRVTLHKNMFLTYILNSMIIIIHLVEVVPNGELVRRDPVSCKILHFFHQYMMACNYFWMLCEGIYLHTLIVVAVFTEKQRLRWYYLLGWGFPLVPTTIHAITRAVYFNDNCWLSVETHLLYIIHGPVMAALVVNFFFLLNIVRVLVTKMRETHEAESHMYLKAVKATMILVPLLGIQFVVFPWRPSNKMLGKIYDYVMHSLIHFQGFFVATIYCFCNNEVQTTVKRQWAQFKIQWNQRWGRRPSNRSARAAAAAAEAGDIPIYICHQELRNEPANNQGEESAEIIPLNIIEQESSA
Description: cell-based or functional assay.

Experiment [2] deals with T2, human amylin 3(a) receptor (human calcitonin receptor co-expressed with RAMP-3) (human, UniProt P30988 25-474; O60896 24-148, limits assumed).
T2 sequence (looked up) 1: T1 sequence (looked up)
T2 sequence (looked up) 2: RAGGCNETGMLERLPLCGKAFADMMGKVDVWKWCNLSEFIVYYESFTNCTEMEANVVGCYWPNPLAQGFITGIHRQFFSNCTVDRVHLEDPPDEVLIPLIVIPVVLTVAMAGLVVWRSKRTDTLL
Description: cell-based or functional assay.

Numbered stars: 1 amine (or outer) side, 2 acyl side, 3 side chain; on linkers, the order of the positions; unused ones are H or OH. Bridge positions count the residues as written; N and C are the ends. Side chains are listed from the residue outwards. Ends that are not written are not given here. * marks the point of attachment. C20 diacid = O=C(O)CCCCCCCCCCCCCCCCCCC(=O)*; γGlu = O=C(O)[C@H](CCC(=O)[*:2])N[*:1]

B1: N^-1-[(4S)-4-carboxy-4-(19-carboxynonadecanoylamino)butanoyl]-Gly[Arg1,His14,Arg17,Pro21,Pro27,His34]-h-amylin (peptide)
peptide: {C20 diacid-γGlu}-GRCNTATCATQRLAHFLRHSSPNFGAIPSSTNVGHNTY-NH2
modifications: disulfide 3-8
SMILES: CC[C@H](C)[C@H](NC(=O)[C@H](C)NC(=O)CNC(=O)[C@H](Cc1ccccc1)NC(=O)[C@H](CC(N)=O)NC(=O)[C@@H]1CCCN1C(=O)[C@H](CO)NC(=O)[C@H](CO)NC(=O)[C@H](Cc1c[nH]cn1)NC(=O)[C@H](CCCNC(=N)N)NC(=O)[C@H](CC(C)C)NC(=O)[C@H](Cc1ccccc1)NC(=O)[C@H](Cc1c[nH]cn1)NC(=O)[C@H](C)NC(=O)[C@H](CC(C)C)NC(=O)[C@H](CCCNC(=N)N)NC(=O)[C@H](CCC(N)=O)NC(=O)[C@@H](NC(=O)[C@H](C)NC(=O)[C@@H]1CSSC[C@H](NC(=O)[C@H](CCCNC(=N)N)NC(=O)CNC(=O)CC[C@H](NC(=O)CCCCCCCCCCCCCCCCCCC(=O)O)C(=O)O)C(=O)N[C@@H](CC(N)=O)C(=O)N[C@@H]([C@@H](C)O)C(=O)N[C@@H](C)C(=O)N[C@@H]([C@@H](C)O)C(=O)N1)[C@@H](C)O)C(=O)N1CCC[C@H]1C(=O)N[C@@H](CO)C(=O)N[C@@H](CO)C(=O)N[C@H](C(=O)N[C@@H](CC(N)=O)C(=O)N[C@H](C(=O)NCC(=O)N[C@@H](Cc1c[nH]cn1)C(=O)N[C@@H](CC(N)=O)C(=O)N[C@H](C(=O)N[C@@H](Cc1ccc(O)cc1)C(N)=O)[C@@H](C)O)C(C)C)[C@@H](C)O
notes: also called compound 100
With B1, in experiment [1], the “Ratio hCT/hAmylin funct.” value was 6.8 and the “hCTR funct. EC50” value worked out at 1730 pM. In addition, the “hAmylin-R funct. EC50” value in experiment [2] came to 253 pM.

B2: N^ε1-[(4S)-4-carboxy-4-[[(4S)-4-carboxy-4-(19-carboxynonadecanoylamino)butanoyl]amino]butanoyl]-[His14,Arg17,Pro21,Pro27]-h-amylin (peptide)
peptide: K([γGlu-γGlu-C20 diacid])CNTATCATQRLAHFLRHSSPNFGAIPSSTNVGSNTY-NH2
modifications: disulfide 2-7; N-terminus assumed
SMILES: CC[C@H](C)[C@H](NC(=O)[C@H](C)NC(=O)CNC(=O)[C@H](Cc1ccccc1)NC(=O)[C@H](CC(N)=O)NC(=O)[C@@H]1CCCN1C(=O)[C@H](CO)NC(=O)[C@H](CO)NC(=O)[C@H](Cc1c[nH]cn1)NC(=O)[C@H](CCCNC(=N)N)NC(=O)[C@H](CC(C)C)NC(=O)[C@H](Cc1ccccc1)NC(=O)[C@H](Cc1c[nH]cn1)NC(=O)[C@H](C)NC(=O)[C@H](CC(C)C)NC(=O)[C@H](CCCNC(=N)N)NC(=O)[C@H](CCC(N)=O)NC(=O)[C@@H](NC(=O)[C@H](C)NC(=O)[C@@H]1CSSC[C@H](NC(=O)[C@@H](N)CCCCNC(=O)CC[C@H](NC(=O)CC[C@H](NC(=O)CCCCCCCCCCCCCCCCCCC(=O)O)C(=O)O)C(=O)O)C(=O)N[C@@H](CC(N)=O)C(=O)N[C@@H]([C@@H](C)O)C(=O)N[C@@H](C)C(=O)N[C@@H]([C@@H](C)O)C(=O)N1)[C@@H](C)O)C(=O)N1CCC[C@H]1C(=O)N[C@@H](CO)C(=O)N[C@@H](CO)C(=O)N[C@H](C(=O)N[C@@H](CC(N)=O)C(=O)N[C@H](C(=O)NCC(=O)N[C@@H](CO)C(=O)N[C@@H](CC(N)=O)C(=O)N[C@H](C(=O)N[C@@H](Cc1ccc(O)cc1)C(N)=O)[C@@H](C)O)C(C)C)[C@@H](C)O
notes: also called compound 92
In the case of B2, in experiment [1], the “Ratio hCT/hAmylin funct.” value is 28 and the “hCTR funct. EC50” value stood at 2380 pM. For the same molecule, in experiment [2], the “hAmylin-R funct. EC50” value is 85 pM.
